Experimental findings from the RNAGym collection of RNA variant scans (doi:10.7554/elife.80360) are described below.

Sequences and labels used below:
B1: HDV Ribozyme (parent)
chain: GGCCGGCAUGGUCCCAGCCUCCUCGCUGGCGCCGGCUGGGCAACAUUCCGAGGGGACCGUCCCCUCGGUAAUGGCGAAUGGGACCCA

This data set covers variants of B1. Nature of the data set: self-cleavage, relative activity (ratio to wild type); higher = more cleavage; co-transcriptional.
Take G6A C36A: the self-cleavage worked out at 0. To U37G G40C belongs 0.0519; to G2U A45C, 0. With G11U C33G the figure was 0.0594. With C21U G38A the figure was 0.177.

With G6U U9A, the self-cleavage was 0.623. To G11C G82C belongs 0.287.

Consider G10U C44U, for which the self-cleavage stood at 0.459. To U20G G73U belongs 0.136; to G25C G81A, 0.

Consider C13U C48A, for which the self-cleavage came to 0.415. To C26U U37A belongs 0.462; to G35A U46A, 0.332; to C7G C41A, 0.

For the variant G28C C32A, the self-cleavage was found to be 0.154. With U37G U46G the figure was 0.332.

As to G40A A78U, the self-cleavage was 0.404. As for G17A A83U, the self-cleavage was 0.565. With C24G G29C the figure was 0; with G2U G59U, 0.128. With G2U G59A the figure was 0.128. In the case of C13G G81C, the self-cleavage came to 0.229. To G29C C36U belongs 0.0755. To G5A G76U belongs 0.148. With G10U C19U the figure was 0.144; with A70C U72A, 0.653. G1U C21U: the self-cleavage amounted to 0.348. To G1U C21A belongs 0.397; to A8G C86A, 1.15; to C4G C48U, 0.306. With G59A U69C the figure was 0.846; with A83C C85U, 0.268; with C13U U47C, 0.489.

On to C7A A45U, for which the self-cleavage was found to be 0.332.

Consider C44G U60A, for which the self-cleavage is 0.798. With C61A C66U the figure was 1.1; with G67C G73C, 0.212; with A8U U37A, 0.201. For C30A A70C, the self-cleavage is 0.491. With G38A G55A the figure was 0.0821. With G38A G55U the figure was 0.19; with U27C A51G, 0.914. To C14A C62A belongs 1.06.

As for U23C C66U, the self-cleavage is 0.95. To C21U C48A belongs 0.302; to G11U G52A, 0.375; to C75U G82U, 0.296.

On to G52C A71G, for which the self-cleavage is 0.884. To G5A C62U belongs 0.16; to C7G G54A, 0.302; to U23A G76A, 0.978.

On to G35C A78U, for which the self-cleavage stood at 0.0475. For C18U G35A, the self-cleavage turned out to be 0.0906. For C7A A71C, the self-cleavage was 0.298. Turning to U27G C32G, the self-cleavage worked out at 0. With U47G A87G the figure was 1.16; with A45C G76C, 0.68; with U20A G74A, 0. To C13G U20G belongs 0; to C13G U20C, 0.158.

Take C4A G40A: the self-cleavage amounted to 0.214. With G25A G68U the figure was 0.247; with C15G U47G, 0.665. On to G35C C49U, for which the self-cleavage was found to be 0.203.

Consider A51G A83G, for which the self-cleavage came to 0.916. To A8U G29A belongs 0.0852.

On to G5U G39U, for which the self-cleavage was 0.136. To G17A G82A belongs 0.272; to C32A C33G, 0.0405; to U12C C15A, 0.482. With C57G U79G the figure was 0.506. Turning to U12G G39C, the self-cleavage came out at 0.208. To C3A G81A belongs 0.054; to G1U U12A, 0.434. Turning to C48A C58G, the self-cleavage is 1.12. With G38C G81A the figure was 0. With C44G U79C the figure was 0.297. To G28C C49U belongs 0.111. With G5A C7A, the self-cleavage came to 0. With G59U G81C the figure was 0.223. To C61G C63U belongs 1.02; to G55A U60A, 0.99.

Regarding C41U A70U, the self-cleavage worked out at 0.936. To C7G C18G belongs 0; to G1A U20G, 0.

As for U20A G40C, the self-cleavage was 0.178. With G5C C41G the figure was 0; with U46C G68A, 0.415; with C26U G55C, 0.954. With C18U C62A the figure was 0.599; with C48A C57A, 0.978. To G55C A77U belongs 0.65. For the variant C3G C22A, the self-cleavage turned out to be 0.119. On to U47G A70G, for which the self-cleavage was 1.01. For the variant G34C U46C, the self-cleavage turned out to be 0.332. Consider C3G A83C, for which the self-cleavage was 0.191. With G39C G54U the figure was 0.222; with G40C U46A, 0.0339. To G17C C58U belongs 0.302. With A43G C63U the figure was 0.615.

Turning to C36A G38C, the self-cleavage stood at 0.0415. To A8U A78G belongs 0.388.

As for A8U A78U, the self-cleavage was 0.128. As for G10A G74U, the self-cleavage is 0.257.

Turning to G67A C75A, the self-cleavage was 0.185. To G17U A51U belongs 0.491. Consider C13G G35U, for which the self-cleavage amounted to 0.0504. With C14U U23G the figure was 0.712; with U27A G52A, 0.844. In the case of G10U A83G, the self-cleavage amounted to 0.221. Regarding C24A G54U, the self-cleavage stood at 0.736. With C26A G59U the figure was 1.12. To C48G G76C belongs 0.867.

Take C48G G76A: the self-cleavage turned out to be 1.12. To U12C C24U belongs 0.0791; to U20C U69A, 0; to U46G G50U, 0.458. With C33G G59U the figure was 0.111. Take C19A A70G: the self-cleavage came out at 0.136.

On to C4G U60A, for which the self-cleavage worked out at 0.332. To C3G A71C belongs 0.261. To G10U G59U belongs 0.905; to C66A G74C, 0.293. To G54A C57U belongs 1.02; to G53A A83C, 0.464. With A42C G59A, the self-cleavage came out at 0.213.

For the variant G76U C86A, the self-cleavage turned out to be 0.615. To G53U A77U belongs 0.623; to C22G A87U, 0.141.

As to C7A C86U, the self-cleavage amounted to 0.831. With A43G G67U the figure was 0.527; with C30A U79C, 0.216. To G10C G81C belongs 0.214; to C13G C63A, 0.0906. With C48U A51C the figure was 0.919; with G55A A87U, 1. With A78C C85A, the self-cleavage was determined as 0.277. With G1C A16C, the self-cleavage amounted to 0.128. With G10U G34A the figure was 0.259. To G11U C13A belongs 0.197; to C18U G25U, 0.0297; to A45G C75G, 0.0536. To G28A G81U belongs 0.0287; to G35A C66A, 0.415; to A16U G54U, 0.771. Take C18U C66A: the self-cleavage amounted to 0.407. With A71U G82C the figure was 0.135; with C24U G34A, 0.0292; with C57G C86A, 0.656. To U46C U79G belongs 0.554; to A43U A71C, 0.543; to A8U G82U, 0.185. In the case of U12G C18G, the self-cleavage stood at 0.

Regarding C57A C63U, the self-cleavage was 1.12. With C24A C32U, the self-cleavage worked out at 0.619. In the case of G5C U47G, the self-cleavage came out at 0.0536.

With U46G C57A, the self-cleavage was determined as 0.635. As for C62G C75G, the self-cleavage was 0.26.

Consider G1C G68A, for which the self-cleavage amounted to 0.158. To C19A A45C belongs 0.0755; to G39C G52U, 0.253. To C18A C44U belongs 0.219; to G6U G73A, 0.113; to G39U A51C, 0.849. To U27G U72G belongs 0.978; to C15G U20C, 0.166; to C4A C41G, 0.0519.
